Source: US20260209386A1 (MYTHIC THERAPEUTICS, published 2026)
Substitutions are numbered along the chain they refer to.

Target: T1, Human PTK7 Protein, His Tag, Acro Biosystems (human, UniProt Q13308 31-704)
T1 construct: Bought recombinant protein; also called CCK4; not shown: His tag
T1 sequence: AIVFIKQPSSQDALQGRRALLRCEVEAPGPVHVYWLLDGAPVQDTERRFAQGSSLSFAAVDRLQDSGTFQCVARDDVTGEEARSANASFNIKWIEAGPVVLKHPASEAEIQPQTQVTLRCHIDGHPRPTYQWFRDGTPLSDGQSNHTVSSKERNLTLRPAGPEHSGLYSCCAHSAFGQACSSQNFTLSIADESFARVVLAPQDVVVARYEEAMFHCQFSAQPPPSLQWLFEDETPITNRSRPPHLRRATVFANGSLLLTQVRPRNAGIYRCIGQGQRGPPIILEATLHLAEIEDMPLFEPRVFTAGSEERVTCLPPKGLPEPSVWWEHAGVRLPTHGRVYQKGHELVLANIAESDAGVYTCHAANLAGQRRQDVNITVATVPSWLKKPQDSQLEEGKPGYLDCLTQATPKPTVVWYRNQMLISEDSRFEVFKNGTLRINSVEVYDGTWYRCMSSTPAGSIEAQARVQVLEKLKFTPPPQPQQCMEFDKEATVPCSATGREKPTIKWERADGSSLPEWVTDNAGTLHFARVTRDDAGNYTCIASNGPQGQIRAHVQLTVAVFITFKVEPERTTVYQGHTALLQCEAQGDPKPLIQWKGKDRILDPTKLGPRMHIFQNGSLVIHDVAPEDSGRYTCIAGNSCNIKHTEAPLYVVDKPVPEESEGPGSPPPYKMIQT
Experiment: BLI (Octet), antibody on anti-human Fc sensor, 50 nM PTK7 at pH 7.4, dissociation at pH 7.4 or 5.4; 1 = pH dependent binding relative to parent

B1: MYT10889 (antibody, V domains shown)
VH: EVQLVESGGGLVQPGGSLRLSCTASGFSLHNYVMNWVRQAPGKGLEWVGIIDSSGSTYYASWAKGRFTISRDTSKNTVYLQMNSLRAEDTAVYFCARGLYLWGQGTLVTVSS
VL: EIVMTQSPSTLSASVGDRVIITCQSSQSVYNNNLLAWYQQKPGKAPKLLIYYTSNLASGVPSRFSGSGSGAEFTLTISSLQPDDFATYYCQGGYNGNIYAFGQGTKLTVL
notes: MYT9345 variant, His at VH pos 30 (H1 05)
Question: Does B1 bind?
Answer: binds

B2: MYT10898 (antibody, V domains shown)
VH: B1 VH with H30S, S53H
VL: B1 VL
notes: MYT9345 variant, His at VH pos 53 (H2 04)
Question: Does B2 bind?
Answer: binds

B3: MYT10916 (antibody, V domains shown)
VH: B1 VH with H30S, L101H
VL: B1 VL
notes: MYT9345 variant, His at VH pos 101 (H3 06)
Question: Does B3 bind?
Answer: binds

B4: MYT10911 (antibody, V domains shown)
VH: B1 VH with H30S, A96H
VL: B1 VL
notes: MYT9345 variant, His at VH pos 96 (H3 01)
Question: Does B4 bind?
Answer: binds

B5: MYT10891 (antibody, V domains shown)
VH: B1 VH with H30S, Y32H
VL: B1 VL
notes: MYT9345 variant, His at VH pos 32 (H1 07)
Question: Does B5 bind?
Answer: binds

B6: MYT10903 (antibody, V domains shown)
VH: B1 VH with H30S, Y58H
VL: B1 VL
notes: MYT9345 variant, His at VH pos 58 (H2 09)
Question: Does B6 bind?
Answer: binds

B7: MYT10936 (antibody, V domains shown)
VH: B1 VH with H30S
VL: B1 VL with L56H
notes: MYT9345 variant, His at VL pos 56 (L2 05)
Question: Does B7 bind?
Answer: binds

B8: MYT10925 (antibody, V domains shown)
VH: B1 VH with H30S
VL: B1 VL with Y30H
notes: MYT9345 variant, His at VL pos 30 (L1 07)
Question: Does B8 bind?
Answer: binds

B9: MYT10895 (antibody, V domains shown)
VH: B1 VH with H30S, I50H
VL: B1 VL
notes: MYT9345 variant, His at VH pos 50 (H2 01)
Question: Does B9 bind?
Answer: binds

B10: MYT10926 (antibody, V domains shown)
VH: B1 VH with H30S
VL: B1 VL with N31H
notes: MYT9345 variant, His at VL pos 31 (L1 08)
Question: Does B10 bind?
Answer: binds

B11: MYT10935 (antibody, V domains shown)
VH: B1 VH with H30S
VL: B1 VL with N55H
notes: MYT9345 variant, His at VL pos 55 (L2 04)
Question: Does B11 bind?
Answer: binds

B12: MYT10918 (antibody, V domains shown)
VH: B1 VH with H30S, D52A
VL: B1 VL
notes: MYT9345 variant, Ala at VH pos 52 (H2 03)
Question: Does B12 bind?
Answer: binds

B13: MYT10927 (antibody, V domains shown)
VH: B1 VH with H30S
VL: B1 VL with N32H
notes: MYT9345 variant, His at VL pos 32 (L1 09)
Question: Does B13 bind?
Answer: binds

B14: MYT10920 (antibody, V domains shown)
VH: B1 VH with H30S
VL: B1 VL with S25H
notes: MYT9345 variant, His at VL pos 25 (L1 02)
Question: Does B14 bind?
Answer: binds

B15: MYT10930 (antibody, V domains shown)
VH: B1 VH with H30S
VL: B1 VL with L35H
notes: MYT9345 variant, His at VL pos 35 (L1 12)
Question: Does B15 bind?
Answer: binds

B16: MYT10928 (antibody, V domains shown)
VH: B1 VH with H30S
VL: B1 VL with N33H
notes: MYT9345 variant, His at VL pos 33 (L1 10)
Question: Does B16 bind?
Answer: binds

B17: MYT10905 (antibody, V domains shown)
VH: B1 VH with H30S, A60H
VL: B1 VL
notes: MYT9345 variant, His at VH pos 60 (H2 11)
Question: Does B17 bind?
Answer: binds

B18: MYT10896 (antibody, V domains shown)
VH: B1 VH with H30S, I51H
VL: B1 VL
notes: MYT9345 variant, His at VH pos 51 (H2 02)
Question: Does B18 bind?
Answer: binds
